The target of assay [1] is opioid growth factor receptor (OGFr) (human) (UniProt Q9NZT2). Nature of the assay: cell-based or functional assay.
The target in a further assay is T1, Cdk4 (human, UniProt P11802 2-303).
T1 construct: Endogenous protein immunoprecipitated from SCC-1 cell homogenates with a commercial polyclonal Cdk4 antibody; also called Cdk4 kinase
Nature of the assay: Cdk4 immunoprecipitation from SCC-1 cell homogenates, Western blot with p16 antibodies. The source says:
Cell cycle progression depends on both positive and negative regulators.

opioid growth factor receptor (OGFr) (human), sequence (Q9NZT2 whole entry): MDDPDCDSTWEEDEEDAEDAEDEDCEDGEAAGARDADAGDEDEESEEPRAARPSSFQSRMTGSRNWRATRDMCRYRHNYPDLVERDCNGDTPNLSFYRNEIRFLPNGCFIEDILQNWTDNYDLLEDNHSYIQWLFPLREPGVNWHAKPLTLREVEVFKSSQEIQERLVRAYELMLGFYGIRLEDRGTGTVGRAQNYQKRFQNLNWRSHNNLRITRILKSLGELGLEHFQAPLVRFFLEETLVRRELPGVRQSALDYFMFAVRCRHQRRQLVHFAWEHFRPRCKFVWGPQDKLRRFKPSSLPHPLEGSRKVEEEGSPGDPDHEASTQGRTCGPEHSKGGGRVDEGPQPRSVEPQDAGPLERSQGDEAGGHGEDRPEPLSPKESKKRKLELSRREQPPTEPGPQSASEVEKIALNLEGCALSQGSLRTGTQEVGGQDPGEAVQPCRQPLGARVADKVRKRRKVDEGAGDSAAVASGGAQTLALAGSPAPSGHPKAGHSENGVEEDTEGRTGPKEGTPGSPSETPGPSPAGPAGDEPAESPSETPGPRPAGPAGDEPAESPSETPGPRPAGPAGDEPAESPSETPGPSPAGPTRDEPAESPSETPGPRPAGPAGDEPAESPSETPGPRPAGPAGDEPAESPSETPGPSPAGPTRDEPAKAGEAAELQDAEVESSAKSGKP
T1 sequence (P11802 2-303 limits assumed): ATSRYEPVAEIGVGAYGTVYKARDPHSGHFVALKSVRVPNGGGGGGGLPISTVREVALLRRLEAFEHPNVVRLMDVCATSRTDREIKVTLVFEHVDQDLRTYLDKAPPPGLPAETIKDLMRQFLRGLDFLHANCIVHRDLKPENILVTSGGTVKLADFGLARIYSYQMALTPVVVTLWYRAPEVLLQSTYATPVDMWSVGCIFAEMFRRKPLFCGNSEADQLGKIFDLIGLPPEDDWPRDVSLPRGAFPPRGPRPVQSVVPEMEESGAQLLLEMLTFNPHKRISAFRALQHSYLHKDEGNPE

In assay [1], “opioid growth factor (OGF), [Met5]-enkephalin (from UniProt P01210 100-104) (peptide)” came in with a growth of control siRNA-treated SCC-1 cells (cell number at 96 h) of 46% and a growth of wt SCC-1 cells (cell number at 96 h) of 29%.

B1: p16 (INK4a) (other, human, UniProt P42771 1-156, looked up)
chain: MEPAAGSSMEPSADWLATAAARGRVEEVRALLEAGALPNAPNSYGRRPIQVMMMGSARVAELLLLHGAEPNCADPATLTRPVHDAAREGFLDTLVVLHRAGARLDVRDAWGRLPVDLAEELGHRDVARYLRAAAGGTRGSNHARIDAAEGPSDIPD
notes: Endogenous protein co-immunoprecipitated with Cdk4 from SCC-1 cell homogenates and detected with a commercial p16 antibody
Consider B1, for which, in the assay with Cdk4, the binding result is on record as “binds”.

The values above are taken from patent US20080146512A1 (published 2008).
